Reference: the supplement of paper PMC7877785
± gives the uncertainty stated by the source.

Assay: self-splicing fitness, log relative to wild type (ln ratio); higher = more splicing; Tetrahymena group I intron in knt gene, E. coli kanamycin selection, DiMSum; sequences stand for … in CUCUCU…GGAGGGAAAAGUUAUCAGGCAUGCACCUGGUAGCUAGUCUUUAAACCAAUAGAUUGCAUCGGUUUAAAAGGCAAGACCGUCAAAUUGCGGGAAAGGGGUCAACAGCCGUUCAGUACCAAGUCUCAGGGGAAACUUUGAGAUGGCCUUGCAAAGGGUAUGGUAAUAAGCUGACGGACAUGGUCCUAACCACGCAGCCAAGUCCUAAGUCAACAGAUCUUCUGUUGAUAUGGAUGCAGUUCACAGACUAAAUGUCGGUCGGGGAAGAUGUAUUCUUCUCAUAAGAUAUAGUCGGACCUCUCCUUAAUGGGAGCUAGCGGAUGAAGUGAUGCAACACUGGAGCCGCUGGGAACUAAUUUGUAUGCGAAAGUAUAUUGAUUAGUUUUGGAGUACUCGUGGUCG
Procedure, shortened: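 Pooled colonies went to amplicon sequencing on an Illumina HiSeq 2500 after six replicate transformations. The plates were LB agar with 100 μg/mL carbenicillin, 50 μM IPTG and 0.2% rhamnose, with or without 25 μg/mL kanamycin, incubated overnight at 37°C or 30°C. The E. coli BL21(DE3) library had all eight P1ex-region intron nucleotides randomised, the intron placed in the knt kanamycin-resistance gene on pET-22b(+). DiMSum fitness is the error-weighted combination of replicate fold changes, kanamycin against none, normalised to wild type.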

Row | Sequence | self-splicing fitness (ln) (30 °C) | self-splicing fitness (ln) (37 °C)
1 | UCCAAGCAAUAUUACGGUGA | -0.389 ± 0.054 | 0.493 ± 0.077
2 | UUUAAGCAAUAUUACGCCCU | -0.119 ± 0.24 | 0.0801 ± 0.28
3 | UAGGAGCAAUAUUACGUCCG | -0.262 ± 0.28 | 1.13 ± 0.28
4 | UUCUAGCAAUAUUACGCAUU | -1.95 ± 0.29 | -1.5 ± 0.35
5 | UAUGAGCAAUAUUACGUCUA | -0.497 ± 0.1 | -0.408 ± 0.13
6 | CCCGAGCAAUAUUACGCACG | – | -3.26 ± 0.47
7 | GUGUAGCAAUAUUACGUUAA | -2.21 ± 0.2 | -1.8 ± 0.16
8 | AAAAAGCAAUAUUACGGGAA | -2.09 ± 0.13 | -1.82 ± 0.13
9 | GCAUAGCAAUAUUACGACGC | -0.867 ± 0.13 | -0.196 ± 0.13
10 | UUACAGCAAUAUUACGCAAC | -3.55 ± 0.33 | -2.32 ± 0.27
11 | CUUCAGCAAUAUUACGAGGU | -4.39 ± 0.42 | -2.9 ± 0.27
12 | CCGCAGCAAUAUUACGUAUA | -3.6 ± 0.16 | -3.03 ± 0.19
13 | UCUGAGCAAUAUUACGCCCU | – | -1.62 ± 0.33
14 | UCCGAGCAAUAUUACGUUUC | -3.39 ± 0.22 | -2.11 ± 0.34
15 | AAGAAGCAAUAUUACGGGCA | -0.698 ± 0.092 | -0.225 ± 0.11
16 | GUACAGCAAUAUUACGGAGU | -3.06 ± 0.18 | -1.88 ± 0.15
17 | UAUAAGCAAUAUUACGCCCG | 0.0737 ± 0.21 | 0.591 ± 0.3
18 | UUCAAGCAAUAUUACGAUGG | -2.38 ± 0.19 | -1.95 ± 0.17
19 | AACCAGCAAUAUUACGCGUC | -2.08 ± 0.089 | -1.12 ± 0.095
20 | AGUCAGCAAUAUUACGUUAU | -1.25 ± 0.099 | -0.0312 ± 0.11
21 | AAAGAGCAAUAUUACGUCCG | -3.14 ± 0.21 | -1.86 ± 0.35
22 | AACGAGCAAUAUUACGUGAU | -3.03 ± 0.18 | -0.913 ± 0.13
23 | ACUCAGCAAUAUUACGACCC | -0.845 ± 0.19 | -2.22 ± 0.22
24 | CUGUAGCAAUAUUACGAUAG | -1.9 ± 0.23 | -1.17 ± 0.15
25 | UGAAAGCAAUAUUACGGUUA | -0.156 ± 0.07 | -0.217 ± 0.064

Row | Sequence | self-splicing fitness (ln) (30 °C) | self-splicing fitness (ln) (37 °C)
26 | UUGUAGCAAUAUUACGGUCG | -0.458 ± 0.12 | -0.593 ± 0.15
27 | CGACAGCAAUAUUACGCAUA | -3.03 ± 0.18 | -2.33 ± 0.18
28 | UCAGAGCAAUAUUACGACUC | -2.63 ± 0.22 | -2.31 ± 0.26
29 | UCGGAGCAAUAUUACGUGCC | -3.26 ± 0.34 | -2.53 ± 0.45
30 | UAUCAGCAAUAUUACGUCAC | -4 ± 0.31 | -1.83 ± 0.3
31 | GUGAAGCAAUAUUACGCCGA | -0.95 ± 0.15 | -0.474 ± 0.16
32 | GCGAAGCAAUAUUACGGGGG | -2.43 ± 0.24 | -2.48 ± 0.34
33 | AGUCAGCAAUAUUACGCUUA | -0.891 ± 0.12 | 0.278 ± 0.14
34 | GUCCAGCAAUAUUACGGCCG | -3.67 ± 0.24 | -2.69 ± 0.19
35 | ACCUAGCAAUAUUACGUCUU | -0.806 ± 0.064 | -0.667 ± 0.075
36 | CGGGAGCAAUAUUACGAGUA | -2.74 ± 0.42 | –
37 | GCAUAGCAAUAUUACGUGUC | -3.89 ± 0.2 | -1.96 ± 0.2
38 | AGGUAGCAAUAUUACGUCGA | -1.4 ± 0.016 | -0.563 ± 0.033
39 | UACAAGCAAUAUUACGAAGA | -2.08 ± 0.27 | -2.11 ± 0.21
40 | UACUAGCAAUAUUACGACGG | -0.517 ± 0.12 | -0.301 ± 0.15
41 | UACGAGCAAUAUUACGGAUC | -3.56 ± 0.4 | -2.63 ± 0.37
42 | UAAAAGCAAUAUUACGGCGA | -0.67 ± 0.11 | 0.453 ± 0.13
43 | CUCGAGCAAUAUUACGUUAC | – | -2.22 ± 0.43
44 | GUAAAGCAAUAUUACGCUAG | -1.03 ± 0.079 | -0.533 ± 0.1
45 | UCGUAGCAAUAUUACGUUUC | -3.71 ± 0.24 | -2.31 ± 0.21
46 | UAUCAGCAAUAUUACGGGAU | -3.78 ± 0.24 | -1.72 ± 0.14
47 | CUAGAGCAAUAUUACGCCGG | – | -0.534 ± 0.29
48 | GAGGAGCAAUAUUACGUACA | -3.14 ± 0.32 | -0.612 ± 0.2
49 | GCUCAGCAAUAUUACGAUGA | -2.09 ± 0.2 | -2.26 ± 0.31
